We go through four molecules from publication PMC5028754, “Structural studies of the yeast DNA damage-inducible protein Ddi1 reveal domain architecture of this eukaryotic protein family” (Scientific Reports, 2016).

Data set [1] deals with the molecule itself. Put plainly: crystal structure; Ddi1 RVP 185-325, 1.8 Å; crystallized in 0.1 M phosphate-citrate, pH 4.2, 0.4 M NaCl, 20% PEG 8000; two chains in the asymmetric unit.
Another data set concerns the target T1, bovine ubiquitin (bovine, UniProt P0CG53 1-76).
T1 construct: ubiquitin, bovine (cut product of the ubiquitin precursors); source: bought: Sigma, cat. no; U6253
Put plainly: ITC; ubiquitin or K48-Ub2 injected from the syringe into the Ddi1 construct in the sample cell; 50 mM HEPES, pH 7.4, 150 mM NaCl, 25 °C; VP-ITC; one-site model varying N, Kd and ΔH; full-length Ddi1 with ubiquitin also fitted to a two-sites model with N fixed to 1.0. As to conditions: both partners purified. A general note: Isothermal titration calorimetry measures the heat released or taken up as one component is titrated into another.

B1: Ddi1 RVP (residues 185-325) (domain or fragment, S. cerevisiae, UniProt P40087 185-325, looked up)
chain: EQLRNAIEYTPEMFTQVPMLYINIEINNYPVKAFVDTGAQTTIMSTRLAKKTGLSRMIDKRFIGEARGVGTGKIIGRIHQAQVKIETQYIPCSFTVLDTDIDVLIGLDMLKRHLACVDLKENVLRIAEVETSFLSEAEIPK
notes: MALDI-TOF 16,320 Da (predicted 16,313 Da); also called RVP domain; Ddi1 retroviral protease-like domain; source: E. coli BL21(DE3), purified (glutathione-sepharose, 3C cleavage, gel filtration); not shown: GST, N-terminal, cleaved
Turning to B1, the “stoichiometry N” value in data set [1] is 2.

B2: full-length yeast Ddi1 (natural protein, S. cerevisiae, UniProt P40087 1-428, looked up)
chain: MDLTISNELTGEIYGPIEVSEDMALTDLIALLQADCGFDKTKHDLYYNMDILDSNRTQSLKELGLKTDDLLLIRGKISNSIQTDAATLSDEAFIEQFRQELLNNQMLRSQLILQIPGLNDLVNDPLLFRERLGPLILQRRYGGYNTAMNPFGIPQDEYTRLMANPDDPDNKKRIAELLDQQAIDEQLRNAIEYTPEMFTQVPMLYINIEINNYPVKAFVDTGAQTTIMSTRLAKKTGLSRMIDKRFIGEARGVGTGKIIGRIHQAQVKIETQYIPCSFTVLDTDIDVLIGLDMLKRHLACVDLKENVLRIAEVETSFLSEAEIPKSFQEGLPAPTSVTTSSDKPLTPTKTSSTLPPQPGAVPALAPRTGMGPTPTGRSTAGATTATGRTFPEQTIKQLMDLGFPRDAVVKALKQTNGNAEFAASLLFQ
notes: Ddi1 of Saccharomyces cerevisiae, full length, cloned into pET16b; ITC concentration calculated to monomer; also called Ddi1 FL; DNA damage-inducible protein Ddi1
B2 yielded a dissociation constant (Kd) with bovine ubiquitin of 320 µM.

B3: Ddi1 RVP-UBA (180-428) (domain or fragment, S. cerevisiae, UniProt P40087 180-428, looked up)
chain: QQAIDEQLRNAIEYTPEMFTQVPMLYINIEINNYPVKAFVDTGAQTTIMSTRLAKKTGLSRMIDKRFIGEARGVGTGKIIGRIHQAQVKIETQYIPCSFTVLDTDIDVLIGLDMLKRHLACVDLKENVLRIAEVETSFLSEAEIPKSFQEGLPAPTSVTTSSDKPLTPTKTSSTLPPQPGAVPALAPRTGMGPTPTGRSTAGATTATGRTFPEQTIKQLMDLGFPRDAVVKALKQTNGNAEFAASLLFQ
notes: Ddi1 of Saccharomyces cerevisiae, residues 180-428 (RVP to UBA, lacks the UBL), cloned into pET16b; Contains the RVP domain; also called RVP-UBA construct (without the UBL)
The molecule B3 had a Kd with bovine ubiquitin of 43 µM.

B4: Ddi1 UBL-RVP (1-325) (domain or fragment, S. cerevisiae, UniProt P40087 1-325, looked up)
chain: MDLTISNELTGEIYGPIEVSEDMALTDLIALLQADCGFDKTKHDLYYNMDILDSNRTQSLKELGLKTDDLLLIRGKISNSIQTDAATLSDEAFIEQFRQELLNNQMLRSQLILQIPGLNDLVNDPLLFRERLGPLILQRRYGGYNTAMNPFGIPQDEYTRLMANPDDPDNKKRIAELLDQQAIDEQLRNAIEYTPEMFTQVPMLYINIEINNYPVKAFVDTGAQTTIMSTRLAKKTGLSRMIDKRFIGEARGVGTGKIIGRIHQAQVKIETQYIPCSFTVLDTDIDVLIGLDMLKRHLACVDLKENVLRIAEVETSFLSEAEIPK
notes: Contains the RVP domain; also called UBL-RVP construct (without the UBA)
Consider B4, for which the equilibrium dissociation constant (Kd) with bovine ubiquitin was 310 µM.

Usually stoichiometry N stands for the number of molecules, sites or subunits per partner or assembly. Usually Kd stands for the concentration at which binding is half-saturated.
